Test results: patent US20170073408A1 (Amgen, published 2017)

T1: A/B13-39
T1 construct: also called Activin A 13/39 B
T1 activin A/B chimeric subunit: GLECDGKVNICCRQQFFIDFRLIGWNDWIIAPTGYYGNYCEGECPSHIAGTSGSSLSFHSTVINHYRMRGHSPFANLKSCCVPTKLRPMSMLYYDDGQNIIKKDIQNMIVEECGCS

T2: A/B82-107
T2 activin A/B chimeric subunit: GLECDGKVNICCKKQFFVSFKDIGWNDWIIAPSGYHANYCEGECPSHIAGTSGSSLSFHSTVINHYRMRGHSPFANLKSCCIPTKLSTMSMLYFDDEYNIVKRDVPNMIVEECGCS

T3: recombinant human activin A (mature) (human, UniProt P08476 311-426)
T3 construct: also called r-HuActivin A; rhActivin A
T3 sequence: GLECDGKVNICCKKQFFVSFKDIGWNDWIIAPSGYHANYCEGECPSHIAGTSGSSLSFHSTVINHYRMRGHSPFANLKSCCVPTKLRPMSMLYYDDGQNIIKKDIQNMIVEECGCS


Experiments:
A/B13-39 = target: T1, A/B13-39; test: Biacore blocking: 100 nM antibody + diluted conditioned medium (CM) of the ligand over ActRIB-Fc surface
A/B82-107 = target: T2, A/B82-107; test: as above
[1] = target: T3, recombinant human activin A (mature); test: Biacore premix competition: 2 nM rhActivinA + 20 nM antibody over immobilized AKA1

| binding result (A/B13-39) | binding result (A/B82-107) | binding result [1] | Binder |
| --- | --- | --- | --- |
| binds | binds | binds | A8 (antibody, V domains shown, also called antibody A8; L8H8) VH: QVQLQESGPGLVKPSETLSLTCTVSGGSINSFYWSWIRQPPGKGLEWIGYIYYSGSTNYNPSLKRRVTISVDTSKTQFSLKLSSVTAADTAVYYCARDSIAAPFDYWGQGTLVTVSS VL: DIVMTQSPDSLAVSLGERATITCKSSQSILYSSNNKKYLVWYQQKPGQPPKLIIYWTSMRESGVPDRFSGSGSGTDFTLTISSLQAEDVAVYYCQQYYSTPWTFGQGTKVEIK |
| binds | binds | binds | A5 (antibody, V domains shown, also called antibody A5; L5H5) VH: QVQLQESGPGLVKPSETLSLTCTVSGGSINSFYWSWIRQPPGKGLEWIGYIYYSGSTNYNPSLKSRVTISVDTSKTQFSLKLSSVTAADTAVYYCARDSIAAPFDYWGQGTLVTVSS VL: DIVMTQSPDSLAVSLGERATITCKSSQSILYSSNNKKYLVWYQQKPGQPPKLIIYWTSMRESGVPDRFSGSGSGTDFTLTINSLQAEDVAVYYCQQYYSTPWTFGQGTKVEIK |
| binds | binds | binds | A13 (antibody, V domains shown, also called antibody A13; L13H13) VH: QVQLVQSGAEVKKPGASVKVSCKASGYTFTSYGISWVRQAPGQGLERMGWISAYNGNTNYAQKFQGRVTMTTDTSTTTAYMELRSLRSDDTAVYYCARDQDYYDSSGWGHWGQGTLVTVSS VL: SYELTQPPSVSVSPGQTASITCSGDKLGDKYVCWYQQKPGQSPELVIYLDNKRPSGIPERFSGSNSGNTATLTISGTQAMDEADYYCQAWDSSTVFGGGTKLTVL |
| no binding (tested: 100 nM) | binds | binds | A14 (antibody, V domains shown, also called antibody A14; L14H14) VH: QVQLVQSGAEVKKPGASVKVSCKTSGYTFTSYGISWVRQAPGQGLEWMGWISPYNGNTNYAQKFQGRVTMTTDKSTSTAYMELRSLRSDDTAVYYCARDQDYYDSSGWDPWGQGTLVTVSS VL: SYELTQPPSVSVSPGQTASITCSGDKLGDKYAFWYQQKPGQSPVLVFYHDTKRPSGIPERFSGSNSGNTATLTISGTQAMDEADYHCQAWDSSTVFGGGTKLTVL |
| binds | no binding (tested: 100 nM) | binds | A7 (antibody, V domains shown, also called antibody A7; L7H7) VH: QVQLVDSGGGVVQPGRSLRLSCAASGFTFISYGMHWVRQAPGKGLEWVAVIWYDGSTEYYADSVKGRFTISRDNSKNTLYLQMNSLRAEDTAVYYCARERQWLYHYGMDVWGQGTTVTVSS VL: DIQMTQSPSSLSASVGDRVTITCRAGQGIRNDLVWYQQKPGKAPKRLIYAASSLQSGVPSRFSGSGSGTEFTLTISSLQPEDFATYYCLQHNTYPFTFGPGTKVDIK |
| binds | no binding (tested: 100 nM) | – | A9 (antibody, V domains shown, also called antibody A9; L9H9) VH: QVQLVESGGGVVQPGRSLRLSCAASGFTFSSYGMHWVRQAPGKGLEWVAVIWYDGSNKYHADSVKGRFTISRDNSKNTLYLQVNSLRAEDTAVYYCVRSRNWNYDNYYYGLDVWGQGTTVTVSS VL: DIQMTQSPSSLSASVGDRVTITCRASQGIRNNLGWYQQKPGKAPKRLIYAASSLQSGVPSRFSGSGSGTEFTLTISSLQPEDFTTYYCLQHNSYPWTFGQGTKVEIK |
| binds | binds | binds | A6 (antibody, V domains shown, also called antibody A6; L6H6) VH: QVQLQQWGAGLLKPSETLSLTCAVYGGSFSAYYWSWIRQPPGKGLEWIGEINHSGGTNYNPSLKSRVTISVDTSKNQFSLKLSSVTAADTAVYYCARVQWLELAYFDYWGQGTLVTVSS VL: DIQMTQSPSSLSASVGDRVTITCRASQSISNYLNWYQQRPGKAPKLLIYATSSLQSGVPSRFSGSGSGTDFTLTISSLQPEDFVSYYCQQSYSISPTFGGGTKVENK |
